Laboratory results published in publication PMC4174439 (RNA, 2014).

Biological target: the molecule itself
Test: SDS-PAGE

B1: Cd-HfqHis6 (Clostridium difficile Hfq bearing a C-terminal His-tag) (natural protein, Clostridium difficile strain 630, UniProt Q187T2 1-86, looked up)
chain: MKNTVLNLQDLFLNNARKERIPVTIYLVNGVQVKGLVKGFDSYIILIEGDNRQQNMIYKHAVSTIQPGKYINLTNQNQNNNNNNNR
stoichiometry N: 6
